Data set [1] has as its system T1, N[C@@H](CC1(C(=O)O)C=CC(O)C=C1)C(=O)O.
T1 construct: full-length, codon-optimized, N-terminal 6xHis tag (pET28a), E. coli Rosetta2 (DE3), HisTrap purified; monofunctional enzyme
In words: A340 reduced cofactor formation, Michaelis-Menten fit. It counts as biochemical, Methanothrix harundinacea. To be noted: 0.8 mM preferred cofactor (NADP+), 25 mM HEPES pH 7.6, 50 mM KCl, 10% ethylene glycol. The source says: (§1) A340 reduced cofactor formation, Michaelis-Menten fit on MhTyrA (MhTyrAp)

Data set [2] relates to T2, O=C(O)C(=O)CC1(C(=O)O)C=CC(O)C=C1.
T2 construct: full-length, codon-optimized, N-terminal 6xHis tag (pET28a), E. coli Rosetta2 (DE3), HisTrap purified; monofunctional enzyme
Described as above. In kind it is biochemical, Methanothrix harundinacea. The following applies: 25 mM HEPES pH 7.6, 50 mM KCl, 10% ethylene glycol.
Excerpt: as §1

Data set [3] addresses T3, OiTyrA (OiTyrAa) (Brucella intermedia, UniProt C4WNJ2).
T3 construct: gene OINT_2001142
In kind it is biochemical.

Substrate in data set [4]: N[C@@H](CC1(C(=O)O)C=CC(O)C=C1)C(=O)O
In words: A340 reduced cofactor formation, Michaelis-Menten fit. The following applies: 25 mM HEPES pH 7.6, 50 mM KCl, 10% ethylene glycol. It counts as biochemical, Sediminispirochaeta smaragdinae. The text has this:
(§2) A340 reduced cofactor formation, Michaelis-Menten fit on SsTyrA (SsTyrAa)

Substrate in data set [5]: O=C(O)C(=O)CC1(C(=O)O)C=CC(O)C=C1
The data set is described as above. In kind it is biochemical, Sediminispirochaeta smaragdinae. To be noted: 0.8 mM preferred cofactor, 25 mM HEPES pH 7.6, 50 mM KCl, 10% ethylene glycol.
Excerpt: as §2

The mark [6] stands for this setting: 0.8 mM preferred cofactor (NADP+).
The mark [7] stands for this setting: 0.8 mM preferred cofactor (NAD+ slightly preferred).

T3 sequence (C4WNJ2 1-269 limits assumed): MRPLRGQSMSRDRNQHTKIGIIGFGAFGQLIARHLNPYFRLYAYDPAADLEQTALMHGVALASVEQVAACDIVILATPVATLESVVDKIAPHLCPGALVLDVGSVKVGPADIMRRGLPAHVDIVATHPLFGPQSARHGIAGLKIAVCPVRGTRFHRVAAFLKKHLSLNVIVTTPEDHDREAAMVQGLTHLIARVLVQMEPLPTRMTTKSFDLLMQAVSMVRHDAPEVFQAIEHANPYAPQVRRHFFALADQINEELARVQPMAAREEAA

In the case of “MhTyrA (MhTyrAp) (Methanothrix harundinacea; Q227E)”, in data set [1], the Km worked out at 3290 ± 220 µM, the catalytic constant (kcat) was 0.704 ± 0.03 s⁻¹ and the catalytic efficiency (kcat/Km) worked out at 213 ± 50 M⁻¹ s⁻¹. In data set [2] (setting [6]), the Michaelis-Menten constant (Km) was found to be 2669 ± 320 µM, the kcat amounted to 0.285 ± 0.02 s⁻¹ and the kcat/Km amounted to 107 ± 40 M⁻¹ s⁻¹.
Turning to `N[C@@H](CC1(C(=O)O)C=CC(O)C=C1)C(=O)O` (some centres unmarked) [arogenate], in data set [3], the “HPLC product assay, 45 min” value is given as “E. coli cell lysate expressing OiTyrA had ADH but not PDH activity”.
In the case of `NC(=O)c1ccc[n+]([C@@H]2O[C@H](COP(=O)(O)OP(=O)(O)OC[C@H]3O[C@@H](n4cnc5c(N)ncnc54)[C@H](O)[C@@H]3O)[C@@H](O)[C@H]2O)c1` [NAD^+], the “HPLC product assay, 45 min” value in data set [3] is “strongly preferred NAD^+ over NADP^+ cofactor”.
Take “MhTyrA (MhTyrAp) (Methanothrix harundinacea)”: in data set [2] (0.8 mM NADP+), the Km came out at 378 ± 20 µM, the turnover number (kcat) is 2.44 ± 0.38 s⁻¹ and the catalytic efficiency (kcat/Km) stood at 6440 ± 540 M⁻¹ s⁻¹.

B1: SsTyrA (SsTyrAa) (Sediminispirochaeta smaragdinae DSM 11293) (protein)
chain: MVEHTVGIYGLGRFGSFWAKSLAASGLKVIGYNRSKRALPEGVVSGSETEVLSCNTLFYCVAISSFEEVLSRTAAKIGKHTLVFDTCSVKVEPVRTMERLLPQGCTFAGSHPMFGPDSASEGMDGLPMVLCPGRDDEGKVDFWRHHFSKMGLRVIEITADRHDKEAAYTQGITHVVGRILGELDLHESEIATSGYKRLLQVREQTCNDPLQLFIDLQRYNPYTHGMRMELTSALEQIMTLFAQADLPPDRP
notes: full-length, codon-optimized, N-terminal 6xHis tag (pET28a), E. coli Rosetta2 (DE3), HisTrap purified
Consider B1, for which, in data set [4] (setting [7]), the Km is 901 ± 150 µM, the catalytic constant (kcat) turned out to be 3.44 ± 0.31 s⁻¹ and the catalytic efficiency (kcat/Km) was determined as 4030 ± 1010 M⁻¹ s⁻¹.

B2: SsTyrA (SsTyrAa) (Sediminispirochaeta smaragdinae DSM 11293; D208N) (protein)
chain: MVEHTVGIYGLGRFGSFWAKSLAASGLKVIGYNRSKRALPEGVVSGSETEVLSCNTLFYCVAISSFEEVLSRTAAKIGKHTLVFDTCSVKVEPVRTMERLLPQGCTFAGSHPMFGPDSASEGMDGLPMVLCPGRDDEGKVDFWRHHFSKMGLRVIEITADRHDKEAAYTQGITHVVGRILGELDLHESEIATSGYKRLLQVREQTCNNPLQLFIDLQRYNPYTHGMRMELTSALEQIMTLFAQADLPPDRP
notes: as for B1
B2: in data set [5], the Km came out at 1742 ± 630 µM, the kcat was determined as 0.863 ± 0.12 s⁻¹ and the kcat/Km is 587 ± 400 M⁻¹ s⁻¹. Moreover, in data set [4] (0.8 mM preferred cofactor), the Michaelis-Menten constant (Km) was determined as 847 ± 160 µM, the turnover number (kcat) came out at 0.45 ± 0.01 s⁻¹ and the catalytic efficiency (kcat/Km) was 568 ± 140 M⁻¹ s⁻¹.

The values above are taken from PMC5681985, “Conserved Molecular Mechanism of TyrA Dehydrogenase Substrate Specificity Underlying Alternative Tyrosine Biosynthetic Pathways in Plants and Microbes” (Frontiers in Molecular Biosciences, 2017).
